Measured values from patent USRE39192E1, “Supplemented and unsupplemented tissue sealants, methods of their production and use” (American National Red Cross, priority 1990, dated 2006).
Structures can show the parent of a compound that is named as a salt.

B1: FGF-4: recombinant fibroblast growth factor-4 (protein, UniProt P08620 31-206, looked up)
Fibroblast growth factor 4: APTAPNGTLEAELERRWESLVALSLARLPVAAQPKEAAVQSGAGDYLLGIKRLRRLYCNVGIGFHLQALPDGRIGGAHADTRDSLLELSPVERGVVSIFGVASRFFVAMSSKGKLYGSPFFTDECTFKEILLPNNYNAYESYKYPGMFIALSKNGKTKKGNRVSPTMKVTHFLPRL

Tests used:
[1] = tested on: E. coli; assay: Antimicrobial activity of AB released from AB-FG (zone of inhibition); format: cell-based; details: eluates on agar plates, 18 hours at 37° C.
Description: FIG. 27. […] Then the diameter of the zone of inhibition was measured.
In order to measure the concentration and biological activity of the TFT which had been released from the TFT-FG disks, the eluted TFT was thawed and was analyzed spectrophotometrically at 320 nm and/or biologically by the inhibition of E. coli grown on agar plates.
The antimicrobial activity of the AB released from the AB-FG was estimated by measuring the diameters of the zones of inhibition generated by the eluate from the 6 mm diameter disks form the daily collected PBS or saliva surrounding the AB-FG. The eluates from unsupplemented FG served as controls. AB solutions of knwon concentration were used as standards. […] To make the culture plates, 100 μl of the bacterial cell suspension, containing approximately 10^8 cells/ml, was mixed with 3 ml of top agar at 50° C. and immediately poured onto the plate hard, bottom agar to make a uniform layer of cells. The plates were incubated at 37° C. for 18 hours.

[2] = tested on: human dermal fibroblasts (HDFs); assay: Cell chemotaxis assay (modified Boyden's chamber), human dermal fibroblasts; format: cell-based
Excerpt: (§1) NIH/3T3 fibroblasts at passage 126 were purchased from the American Type Culture Collection, Rockville, Md. Cultures from passages 129-133 were used in the chemotaxis assays. Cultures were propagated in DMEM supplemented with 10%. Calf serum and approximately 1% antibiotic antimycotic solution. Human dermal fibroblasts (HDFs) were purchased from Clonetics, Inc. (San Diego, Calif.) at passage 2. Cultures from passages 3-5 were used in the chemotaxis assays. Cultures were cultivated in DMEM supplemented with 20% FBS (Hyclone Laboratories, Inc., Logan, Utah) and approximately 1% antibiotic antimycotic solution (Gibco, Grand Island, N.Y.).
(§2) The procedure used to determine cellular chemotaxis was a combination of two known methodologies. A modification of Boyden's chamber was used as follows: Millicell-PCF (Millipore, Inc., Bedford, Mass.) (12.0 μm) 12.0 mm diameter inserts were placed in individual wells of 24 well plates to create the upper and lower chemotaxis chambers. Chemotaxis results were arrived at by performing checkerboard analysis for every combination of cells and growth factors. Concentrations ranging from 0.1, 1, 10, 100 ng/ml with/without added heparin (10 U/ml) were used for FGF-1, FGF-2 (no heparin) and FGF-4 with all the cell types mentioned in the materials section. Briefly, cultures were trypsanized and placed in DMEM+0.1% Bovine Serum Albumin (BSA) (Sigma Chemical Co., St. Louis, Mo.) for approximately one hour at 37° C. in a 5% CO2 humidified chamber. Tow to 2.5×10^5 cells in 50 μl were added per insert to the upper chamber of the setup of the 24 well plates. Treatments were added as mentioned above. The assay was kept at 37° C. in a 5% CO2 humidified chamber for 4 hours. All combinations tested were performed in triplicate. At the end of 4 hours, the plates were removed from the incubator and the filters were stained following the protocol for staining included with the Millicell-PCT inserts. Briefly, the fluid surrounding the inside and outside of the Millicell-PCF inserts were removed. Three percent glutaraldehyde (Sigma Chemical Co., St. Louis, Mo.) was added to the outside and inside of the inserts for approximately 20 minutes. Following removal of the 3.0% glutaraldehyde, 0.5% Triton X-100 (E.M. Science, Cherry Hill, N.J.) was added for 5-7 minutes. On removal of the 0.5% Triton X-100, Fisher's Hematoxylin Solution Gill's Formulation (Fisher Scientific, Newark, Del.) No.1 was added for about 10 minutes. This solution was washed off in running distilled water for about 5 minutes. Using a cotton swab the upper side of the filter was swabbed to remove cells which had not migrated. Filters, were mounted lower side facing up on slides in Crystal Mount™ (Biomedia, Inc., Foster City, Calif.) solution and 10 random field were counted per slide both visually at 400× and at 200×using an Image Analyzing System to automate the enumeration of the cells on the underside of the filters.
(§3) As required, checkerboard analysis was carried out to determine random migration, and positive and negative chemotaxis. Growth factors were added to the upper and/or lower chambers to observe whether cells migrated towards the GF alone (chemotaxis), whether migration was random irrespective of whether the growth factor was added to the upper or lower well (chemokinesis) or whether cell migration was against the chemotactic gradient (negative chemotaxis).

[3] = tested on: NIH 3T3 fibroblasts; assay: Cell chemotaxis assay (modified Boyden's chamber), NIH 3T3 fibroblasts; format: cell-based; details: for concentration of maximum stimulation of migration: FGF-1 in the presence of 10 U/ml heparin
Excerpt: as §1
as §2, with “Concentrations ranging from 0.1, 1, 10, 100 ng/ml with/without added heparin (10 U/ml) were used for FGF-1, FGF-2 (no heparin) and FGF-4 with all the cell types mentioned in the materials section.” left out
as §3

[4] = tested on: human dermal fibroblasts (HDFs); assay: Cell migration assay to FGF released from FG; format: cell-based; details: 24 hours
Description: FIG. 41. Graph showing the dose-response relationship of the chemotactic response of HDFs to FGF-4 in solution and in FG. FGF-4 was incorporated into FG and placed in the bottom well of chemotaxis chambers. The amount of FGF in the FG was sufficient to result in the indicated concentrations when evenly distributed throughout the FG and medium in the lower chamber. Negative controls included medium alone and FG without FGF. Medium containing FGF-4 at a concentration of […] in the lower chamber was utilized as a positive control.
Chemotaxis chambers and cells were utilized as described above. Fifty μl of 8 mg/ml Topical Fibrinogen Complex (TFC, American Red Cross, Rockville, Md.) was added to the bottom of 24 well plates. Forty μl of test growth factor+/−heparin at a final concentration of 10 U/ml (FGF-1, FGF-4 with heparin, FGF-2 alone) was added to the TFC and thoroughly mixed. Ten μl of bovine Thrombin (Armour Pharmaceutical Company, Kankakee, Ill.) was added and mixed thoroughly. The components were allowed to gel at room temperature for approximately 30 minutes. Total volume in the lower and upper chambers was made up to 0.5 ml each with DMEM+0.1% BSA. The concentration of the FGF's added to the TFC was adjusted to produce the desired overall concentration as determined by: [formula] The assay was performed at 37° C. in a5% CO2 humidified chamber for approximately 24 hours. […]

[5] = Washout of 125I-HBGF-1 from FG-treated PTFE grafts in rabbit aortas; format: in vivo, New Zealand white rabbits
Description: In general, the modified F was sterilely prepared by adding approximately 1 ng/cm^2 area of the inner and outer graft surfaces of human recombinant […], 20 μg/cm^2 porcine intestinal mucosal heparin, and 2.86 mg/cm^2 fibrinogen to 2.86×10^−2 U/cm^2 reconstituted, commercially available, human thrombin (1000 U/ml) to induce polymerization.
The […] was specifically prepared as follows. Fibrinogen was reconstituted by adding 500 mg of fibrinogen into 25 ml of PBS to produce a fibrinogen concentration of 20 mg/ml of PBS. Three ml of this solution which contained 60 mg fibrinogen were placed into […] Eppendorf plastic tubes and maintained at −70° C. Each of these aliquots was used individually.
The thrombin was reconstituted by diluting a commercially available preparation thereof (Armour Pharmaceutical Co., Kankakee, Ill.) at a concentration of 1000 U/ml by a factor of 1:10 in sterile solution to produce a concentration of 100 U/ml. This thrombin solution was again diluted 1:10 to produce a solution of 10 U/ml.
The bovine heparin (Upjohn, Kalamazoo, Mich.) was reconstituted by diluting the preparation at a concentration of 1000 U/ml by a factor of 1:1000 using normal saline.
One and 48/100 (1.48) ml of the reconstituted fibrinogen, 63 μL of the reconstituted heparin, plus 15.66 μL of ^125I-HBGF-1 were mixed in a glass scintillation tube. This mixture was then aspirated into a 3 ml plastic syringe. Five ml of the reconstituted thrombin was placed into a glass scintillation tube.
One end of the expanded PTFE graft was placed over a plastic-3 way stopcock nozzle and was secured there with a 2-0 silk tie. The PTFE was then encircled with a 3×3 cm square of Parafilm™ which was then crimped there with a straight hemostat to establish a watertight seal. A second 2-0 silk tie was positioned over the parafilm adjacent to the stopcock to form another seal. A straight hemostat was then used to clamp the distal 2 mm of the PTFE/parafilm to seal this end.
Equal volumes of fibrinogen and thrombin solution prepared as described above were mixed and allowed to react for approximately 30 seconds which is when polymerization occurs. The thrombin-polymerized fibrin is then opaque. (This time factor is approximate and varies from one thrombin lot to another. The appropriate length of time to polymerization can be determined by viewing the opacity of the mixture). The fibrin/thrombin mixture was aspirated into a one cc syringe. (NOTE: The volume of this graft was 0.42 ml. For a graft with a larger volume one needs to use a larger syringe). […] The treated graft was then ready for implantation. […]

Molecule | antimicrobial activity of released AB [1] | checkerboard analysis [2] | concentration of maximum stimulation of migration [2] [mg/mL] | maximal migratory response over negative control [2] [fold] | checkerboard analysis [3] | concentration of maximum stimulation of migration [3] [ng/mL] | other results
O=C(O)c1cn(C2CC2)c2cc(N3CCNCC3)c(F)cc2c1=O [CIP, Ciprofloxacin HCl] | parallels the profiles determined spectrophotometrically | – | – | – | – | – | –
Cc1ncc([N+](=O)[O-])n1CCO [MET, Metronidazole] | parallels the profiles determined spectrophotometrically | – | – | – | – | – | –
FGF-2: recombinant fibroblast growth factor-2 | – | chemotactic | 10 | 12 | chemotactic | 1 | concentration in FG eliciting peak chemotactic response [4]: 0.01 mg/mL
^125I-HBGF-1: radiolabelled human recombinant HBGF-1 in FG applied to PTFE grafts | – | – | – | – | – | – | remaining 125I-HBGF-1, percentage of the zero time value ([5]; after 1 week): 13.44%±6.9%; washout of 125I-HBGF-1 ([5]; after 1 hr): −0.03 %/min; remaining 125I-HBGF-1, percentage of the zero time value ([5]; after 30 days): 3.8%±1.1%; washout of 125I-HBGF-1 ([5]; between 5 and 60 minutes): −24.1 %/min
B1 | – | chemotactic | 10 | 10 | chemotactic | 10 | incorporated and total concentration in FG eliciting maximal migratory response [4]: 1 ng/mL
